According to IntAct's records for PubMed 16697956:

B1: BH3-interacting domain death agonist (Homo sapiens), P55957 (parent)
chain: MDCEVNNGSSLRDECITNLLVFGFLQSCSDNSFRRELDALGHELPVLAPQWEGYDELQTDGNRSSHSRLGRIEADSESQEDIIRNIARHLAQVGDSMDRSIPPGLVNGLALQLRNTSRSEEDRNRDLATALEQLLQAYPRDMEKEKTMLVLALLLAKKVASHTPSLLRDVFHTTVNFINQNLRTYVRSLARNGMD
B2: BH3-interacting domain death agonist (Homo sapiens), P55957 (parent)
chain: B1 chain
partner: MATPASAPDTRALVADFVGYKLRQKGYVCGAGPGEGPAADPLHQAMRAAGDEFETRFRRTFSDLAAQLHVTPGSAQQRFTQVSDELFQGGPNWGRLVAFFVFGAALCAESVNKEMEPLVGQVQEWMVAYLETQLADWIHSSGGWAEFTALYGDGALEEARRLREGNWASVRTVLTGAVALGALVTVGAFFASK
B3: BH3-interacting domain death agonist (Homo sapiens), P55957 (parent)
chain: B1 chain
partner: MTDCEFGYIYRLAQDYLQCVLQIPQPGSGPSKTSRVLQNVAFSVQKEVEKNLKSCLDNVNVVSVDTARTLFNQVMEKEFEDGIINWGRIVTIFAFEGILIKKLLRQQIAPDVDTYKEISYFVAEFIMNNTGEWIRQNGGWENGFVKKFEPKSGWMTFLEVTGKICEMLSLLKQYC
B4: Bcl-2-like protein 2 (Homo sapiens), Q92843 (parent)
chain: B2 partner

Variants of: B1
Conditions: with bcl2_human BCL2, P10415
Chain of bcl2_human BCL2, P10415 (P10415 whole entry): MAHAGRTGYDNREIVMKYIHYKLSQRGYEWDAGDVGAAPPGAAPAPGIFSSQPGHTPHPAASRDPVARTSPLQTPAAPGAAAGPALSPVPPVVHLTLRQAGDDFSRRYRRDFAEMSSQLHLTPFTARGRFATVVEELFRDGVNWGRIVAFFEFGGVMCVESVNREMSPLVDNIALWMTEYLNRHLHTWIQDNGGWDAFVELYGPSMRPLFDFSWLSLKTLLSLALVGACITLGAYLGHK

Variant | effect of a mutation on the interaction
MDCEVNNGSSLRDECITNLLVFGFLQSCSDNSFRRELDALGHELPVLAPQWEGYDELQTDGNRSSHSRLGRIEADSESQEDIIRNIARHAAQVGASMDRSIPPGLVNGLALQLRNTSRSEEDRNRDLATALEQLLQAYPRDMEKEKTMLVLALLLAKKVASHTPSLLRDVFHTTVNFINQNLRTYVRSLARNGMD | disrupting interaction

Variants of: B1
Conditions: with BCL2L1, Q07817
Chain of BCL2L1, Q07817 (Q07817 whole entry): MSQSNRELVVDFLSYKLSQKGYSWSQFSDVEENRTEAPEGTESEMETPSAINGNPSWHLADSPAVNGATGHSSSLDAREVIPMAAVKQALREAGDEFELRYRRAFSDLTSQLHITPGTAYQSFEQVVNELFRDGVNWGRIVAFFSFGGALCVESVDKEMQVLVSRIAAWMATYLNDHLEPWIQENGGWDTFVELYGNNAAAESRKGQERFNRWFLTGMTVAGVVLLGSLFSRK

Variant | effect of a mutation on the interaction
MDCEVNNGSSLRDECITNLLVFGFLQSCSDNSFRRELDALGHELPVLAPQWEGYDELQTDGNRSSHSRLGRIEADSESQEDIIRNIARHAAQVGASMDRSIPPGLVNGLALQLRNTSRSEEDRNRDLATALEQLLQAYPRDMEKEKTMLVLALLLAKKVASHTPSLLRDVFHTTVNFINQNLRTYVRSLARNGMD | disrupting interaction

Variants of: B1
Conditions: with mcl1_human MCL1, Q07820
Chain of mcl1_human MCL1, Q07820 (Q07820 whole entry): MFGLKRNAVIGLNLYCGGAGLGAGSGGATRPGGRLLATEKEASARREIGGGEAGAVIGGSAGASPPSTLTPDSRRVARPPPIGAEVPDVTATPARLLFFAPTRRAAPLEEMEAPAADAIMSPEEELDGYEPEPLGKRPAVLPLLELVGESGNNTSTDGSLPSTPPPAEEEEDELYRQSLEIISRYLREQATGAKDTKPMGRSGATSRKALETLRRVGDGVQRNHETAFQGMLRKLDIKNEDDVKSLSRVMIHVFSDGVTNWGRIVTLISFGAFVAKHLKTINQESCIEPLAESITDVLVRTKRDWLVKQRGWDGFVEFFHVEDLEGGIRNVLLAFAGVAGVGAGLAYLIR

Variant | effect of a mutation on the interaction
MDCEVNNGSSLRDECITNLLVFGFLQSCSDNSFRRELDALGHELPVLAPQWEGYDELQTDGNRSSHSRLGRIEADSESQEDIIRNIARHAAQVGASMDRSIPPGLVNGLALQLRNTSRSEEDRNRDLATALEQLLQAYPRDMEKEKTMLVLALLLAKKVASHTPSLLRDVFHTTVNFINQNLRTYVRSLARNGMD | disrupting interaction

Variants of: B2
Conditions: with BCL2L2, Q92843

Variant | effect of a mutation on the interaction
MDCEVNNGSSLRDECITNLLVFGFLQSCSDNSFRRELDALGHELPVLAPQWEGYDELQTDGNRSSHSRLGRIEADSESQEDIIRNIARHAAQVGASMDRSIPPGLVNGLALQLRNTSRSEEDRNRDLATALEQLLQAYPRDMEKEKTMLVLALLLAKKVASHTPSLLRDVFHTTVNFINQNLRTYVRSLARNGMD | disrupting interaction

Variants of: B3
Conditions: with BCL2A1, Q16548

Variant | effect of a mutation on the interaction
MDCEVNNGSSLRDECITNLLVFGFLQSCSDNSFRRELDALGHELPVLAPQWEGYDELQTDGNRSSHSRLGRIEADSESQEDIIRNIARHAAQVGASMDRSIPPGLVNGLALQLRNTSRSEEDRNRDLATALEQLLQAYPRDMEKEKTMLVLALLLAKKVASHTPSLLRDVFHTTVNFINQNLRTYVRSLARNGMD | disrupting interaction

Variants of: B4
Conditions: with bid_mouse Bid

Variant | effect of a mutation on the interaction
MATPASAPDTRALVADFVGYKLRQKGYVCGAGPGEGPAADPLHQAMRAAGDEFETRFRRTFSDLAAQLHVTPGSAQQRFTQVSDELFQGGPNWGPLVAFFVFGAALCAESVNKEMEPLVGQVQEWMVAYLETQLADWIHSSGGWAEFTALYGDGALEEARRLREGNWASVRTVLTGAVALGALVTVGAFFASK | disrupting interaction
